Molecular target: PfPDI8 (PF3D7_0827900), 3xV5-tagged (P. falciparum (3D7))
Test: co-IP

other: 2 fold
Substance: PfBiP, Hsp70 Binding immunoglobulin Protein (natural protein)

Reference: article PMC7886143
